In paper PMC10864366, “Aggresome formation promotes ASK1/JNK signaling activation and stemness maintenance in ovarian cancer” (Nature Communications, 2024):

Target: the molecule itself
Test: gel-shift assay (SDS-PAGE of heated and unheated protein, Coomassie stain); purified OTUD1 WT and Δ105–164 protein; heated (100 °C) and unheated samples separated by SDS-PAGE

B1: purified OTUD1 protein (WT), pET28a-mEGFP-OTUD1 (natural protein, UniProt Q5VV17 1-481, looked up)
chain: MQLYSSVCTHYPAGAPGPTAAAPAPPAAATPFKVSLQPPGAAGAAPEPETGECQPAAAAEHREAAAVPAAKMPAFSSCFEVVSGAAAPASAAAGPPGASCKPPLPPHYTSTAQITVRALGADRLLLHGPDPVPGAAGSAAAPRGRCLLLAPAPAAPVPPRRGSSAWLLEELLRPDCPEPAGLDATREGPDRNFRLSEHRQALAAAKHRGPAATPGSPDPGPGPWGEEHLAERGPRGWERGGDRCDAPGGDAARRPDPEAEAPPAGSIEAAPSSAAEPVIVSRSDPRDEKLALYLAEVEKQDKYLRQRNKYRFHIIPDGNCLYRAVSKTVYGDQSLHRELREQTVHYIADHLDHFSPLIEGDVGEFIIAAAQDGAWAGYPELLAMGQMLNVNIHLTTGGRLESPTVSTMIHYLGPEDSLRPSIWLSWLSNGHYDAVFDHSYPNPEYDNWCKQTQVQRKRDEELAKSMAISLSKMYIEQNACS
notes: OTUD1, wild type; also called purified native WT OTUD1 protein; source: pET28a-mEGFP-OTUD1 construct, purified
binding result: binds
